# Measured values from US20080193973A1, “Bacillus Subtilis Strain and its Use in Preparing Pharmaceuticals for Treating Thrombosis” (CHENGDU DI'AO JIUHONG PHARMACEUTICAL, priority 2005, published 2008).
# Marks after values point to notes of the source that are not given here.
# B1: nattokinase of the invention: fibrinolysin produced by Bacillus subtilis Diao 1502; crude drug, luteous water-soluble powder, batch No. 20040617 (protein, UniProt P35835 107-381, looked up)
# Subtilisin NAT: AQSVPYGISQIKAPALHSQGYTGSNVKVAVIDSGIDSSHPDLNVRGGASFVPSETNPYQDGSSHGTHVAGTIAALNNSIGVLGVAPSASLYAVKVLDSTGSGQYSWIINGIEWAISNNMDVINMSLGGPTGSTALKTVVDKAVSSGIVVAAAAGNEGSSGSTSTVGYPAKYPSTIAVGAVNSSNQRASFSSVGSELDVMAPGVSIQSTLPGGTYGAYNGTSMATPHVAGAAALILSKHPTWTNAQVRDRLESTATYLGNSFYYGKGLINVQAAAQ
# B2: Nattokinase (NK): serine protease extracted from the traditional Japanese food Natto, 275 amino acids (background literature) (protein, UniProt P35835 107-381, looked up)
# Subtilisin NAT: AQSVPYGISQIKAPALHSQGYTGSNVKVAVIDSGIDSSHPDLNVRGGASFVPSETNPYQDGSSHGTHVAGTIAALNNSIGVLGVAPSASLYAVKVLDSTGSGQYSWIINGIEWAISNNMDVINMSLGGPTGSTALKTVVDKAVSSGIVVAAAAGNEGSSGSTSTVGYPAKYPSTIAVGAVNSSNQRASFSSVGSELDVMAPGVSIQSTLPGGTYGAYNGTSMATPHVAGAAALILSKHPTWTNAQVRDRLESTATYLGNSFYYGKGLINVQAAAQ
# How the values were obtained:
# [1] = weight and overt toxicity of test rats during 7 days of administration
# Description: Experimental Animal: 84 male SD rats weighing 250 to 320 g, purchased from the Animal Center of Henan Medical University of China.
# Eighty-four male SD rats were randomly assigned to seven experimental groups (12 rats each group) according to their body weight. The freeze-dried powder of nattokinase and positive drug aspirin were given to test groups and the control group was administered with 5% NaHCO3, by intragastric administration according to the dosage of 0.5 ml/100 g each day for 7 continuous days. The positive drug staphylokinase was given at the 7th day by intravenous injection.
# [2] = test system: carotid artery thrombosis in rats; assay: carotid artery thrombosis test in rats (direct current stimulation, thrombus formation time); format: in vivo, SD rats
# Description: Experimental Apparatus: Experimental Intracorporeal Thrombosis Surveyor BT87-3, developed by the cardiovascular research department of Baotou Medical University of China.
# The carotid artery of test rats were separated 1 hour after the last intragastric administration or 15 minutes after intravenous injection according to the method prescribed in existing literature. Being stimulated continually with direct current (2 mA) for 7 minutes, the injuries of endarterium of carotid artery formed thrombosis gradually in test rats. The experimental apparatus would give an automatic alarm and record the time of thrombus formation when the blood vessels were blocked.
# [3] = test system: mice; assay: acute toxicity test by intragastric administration in mice; format: in vivo
# [4] = enzyme (nattokinase) activity of fermentation broth or dried crude product; format: biochemical
# Excerpt: Although many kinds of fermentation techniques have been reported in existing literatures related to nattokinase from Bacillus subtilis, but the majority of the publicized strains have lower enzyme producing ability. On the other hand, other literatures describes some fermentation products from Bacillus subtilis that have higher enzyme producing ability, but it is difficult to evaluate the abilities of these publicized enzymes for the uncertainties of measuring conditions. The strain of Bacillus subtilis of the invention was fermented under the condition of temperature 30 to 40 degree C. and with the speed of 180 to 220 rpm for shaking bed, and the peak of enzyme production was obtained next day with enzyme activity of 1600 IU/ml and could be increased to 1697 IU/ml under optimized conditions. The enzyme activity of dried crude product could reach to 5000-10000 IU/g in solid fermentation of 10 kg supplies. […] Therefore, it has a very high industrial application value. So we think that the strain of Bacillus subtilis (No. Diao 1502) is a newly developed, different one in comparison with any Bacillus subtilis producing nattokinase reported in existing literatures.
# [5] = temperature below 56 degree C. for 30 10 minutes; cited from earlier work
# [6] = preliminary test of activity of nattokinase prepared by 5% NaHCO3 at room temperature; format: physicochemical; settings: prepared by 5% NaHCO3, room temperature for 4 days
# Excerpt: Basis of Preparation: It has been reported that the nattokinase-like drugs are stable at pH values from 6.0 to 12.0 and unstable when to the PH value is below 5.0. Generally, the pH values of digestive tract are ranged from 0.9 to 1.5 in stomach, 6.0 to 6.8 in small intestine and 6.5 to 7.5 in colon. Therefore, the direct intragastric administration of drug containing nattokinase prepared with common solution adjuvant is unstable and easy to breakdown.
# [7] = in vivo, po; cited from earlier work
molecule,measurement,setting,value
CC(=O)Oc1ccccc1C(=O)O [Aspirin],Weight of test rats after 7 days of administration,[1]; aspirin 40 mg/kg/day intragastric,316 ± 20
same,Weight of test rats before administration,[1]; aspirin group (40 mg/kg/day intragastric),296 ± 15
same,"Thrombus formation time, mean value","[2]; aspirin 40 mg/kg/day intragastric for 7 days, 1 hour after last administration",1379** second
B1,LD50,[3],higher than 6.0 g/kg
same,Enzyme activity of fermentation broth,[4]; after optimization of fermentation condition,1697 IU/ml
same,Enzyme activity of fermentation broth,"[4]; liquid fermentation, before optimization",1600 IU/ml
same,Enzyme activity of dried crude product,"[4]; solid fermentation of 10 kg class, after drying",5000-10000 IU/g
same,Toxicity in rats (in words),"[1]; 7-day's intragastric administration, prepared with 5% NaHCO3",no apparent toxicity
same,Activity after incubation (in words),[5],basically unchanged
same,Activity after storage (in words),[6],no decrease in activity
same,Carotid artery thrombosis time compared with positive Aspirin (in words),[2]; groups of different dosages,no significant difference
same,"Thrombus formation time, mean value","[2]; high dosage 100 mg/kg in 5% NaHCO3, intragastric for 7 days",1309** second
same,Effect on carotid artery thrombosis time compared with negative control (in words),[2]; listed as NK prepared by 5% NaHCO3,apparent antithrombotic effects
same,Effect on carotid artery thrombosis time compared with negative control (in words),[2]; listed as freeze dried powder of nattokinase,prolonged significantly
same,"Thrombus formation time, mean value","[2]; low dosage 4 mg/kg in 5% NaHCO3, intragastric for 7 days",1237* second
same,"Thrombus formation time, mean value","[2]; middle dosage 20 mg/kg in 5% NaHCO3, intragastric for 7 days",1287* second
B2,Time of peak value of fibrinolytic activity after taking the medicine,[7],4 h
same,Time till which certain activity was maintained,[7],8 h
